Laboratory results: paper PMC5700101

Molecular target: PBD–GFP (PBD of Polo, amino acids 350–576, C-terminally fused to GFP10) (UniProt P52304)
Experiment: BRET
Conditions: live HEK293T cells; fixed amount of Luc-KD vector, increasing PBD–GFP vector; Map205 fragment co-transfected; p-value < 0.0001; parent: 0.197

other: BRET50: 2.49 GFP/Luc
Substance: Luc-KD (KD–IDL of Polo, amino acids 1–349, N-terminally fused to RLucII), KD^WT (from UniProt P52304) NLS7A
